Experiment: yeast display, Sf9 membrane polyspecificity reagent, FACS + sequencing; frameworks hold sequencing errors
Outline: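 Galactose induction of a Saccharomyces cerevisiae BJ5465 synthetic nanobody display library ran 36–48 hours. The cells were then stained for 1 hour at 4 °C with 10% biotinylated, detergent-solubilized Sf9 membrane reagent, pulled down on streptavidin microbeads and FACS-sorted into low and high (top ~1%) gates on expression and reagent-binding fluorescence. Labels for polyreactivity follow the gate of origin.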
For “QVQLVESGGGLVQSGGSLRLSCAASGYIFGYYAMGWYRQAPGKERELVAAITGTDDTNYADSVKGRFTISRDNAKNTVYLQMNSLIPEDTAVYYCAAYSWWNEYDYWGQGTQVTVSS”, the “polyreactivity (PSR sort gate)” value was “high polyreactivity”. With “QVQLVESGGGLVQSGGSLRLSCAPSGRIFAGYTMGCYRQAPGKERELVAAISWSGGRTYYADSVKGRFTISRDNAKNTVYLQMNSLKPEDTAVYYCAVGFRTLHGDYGYWGQGTQVTVSS” the “polyreactivity (PSR sort gate)” value was “high polyreactivity”. For “QVQLVESGGGLVQSGGSLRLSCCACGRIFYSYSMGRYRQAPGKDRELVAANTCRGGSTYYADSVKGRFTISRDNAKNPVYLQMIRLKPEDTAVSYCATSSHTPYYSYIVERIHYDYWGQGTQVTVSS”, the “polyreactivity (PSR sort gate)” value was “high polyreactivity”. In the case of “QVQLVESGGGLVQSGGSLRLSCDPSGSIFSHNAMGWYRQAPGKERELVAAITASSGSTYYADSVKGRFTISRDNAKNTVYLQMNSLKPEVNAVYFCARVSRKRHQQDGKYGYWGQGTQVTVSS”, the “polyreactivity (PSR sort gate)” value is reported as “high polyreactivity”. With “QVQLVESGGGLVQSGGSLRLTCAASGRTFPYYAMGWYRQAPGKERELVAAISRRGGSTYYADSVKGRFTISRDNAMNTVYLQMNSLKPEDTAVYYCAAAGGVSGGEYDYWGQGTQVTVSS” the “polyreactivity (PSR sort gate)” value was “high polyreactivity”. With “QVQLVESGGGLVQSGVSLRLSCAASGIIFFSNTMGWYRQAPGKEREFVAAITWSTGNTYYADSVKGRFTISRDNAKNTVYLQMNSLKPEDTAVYYCYAEFLVITWYGGVEFDYWGQGTQVTVSS” the “polyreactivity (PSR sort gate)” value was “low polyreactivity”. With “QVQLVESGGGLVQVGGSLRLSCAASGGIFSGNAMGWSRPAPGKERELVAGITNGGRTTYADSVKGRFTISRDNAKNTVYLQMNSLKPEDTAVYYCNVYVSAGEEDEYWGQGTQVTVSS” the “polyreactivity (PSR sort gate)” value was “low polyreactivity”. With “QVQLVESGGGLVQVGGSLRLSCAASGITLSYYAMGWYRQAPGKEREFVASITVSRTSTYYADSVKGRFTISRDNAKNTVYLQMNSLKPEDTAVYYCAAYAYQYRFSGYGYWGQGTQVTVSS” the “polyreactivity (PSR sort gate)” value was “low polyreactivity”. In the case of “QVQLVESGGGLVQVGGSLRLSCAASGITLTYYALGWYRQAPGKERELVAAIDSGGTTHYADSVKGRFTISRDNAKNTVYLQMNSLKPEDTAVYYCAARPTRGHWWYGYWGQGTQVTVSS”, the “polyreactivity (PSR sort gate)” value is reported as “low polyreactivity”. In the case of “QVQLVESGGGLVQVGGSLRLSCAASGRTFWWYAMGWYRQAPGKERELVAAITRSGGSTYYADSVKGRFTISRDNAKYTVYLQMNSLKQEDTAVYYCAASHYGLLEYWGQGTQVTVSS”, the “polyreactivity (PSR sort gate)” value is reported as “low polyreactivity”. In the case of “QVQLVESGGGLVQVGGSLRLSCAASGRTFYRYAMGWYRQAPGKERELVATINWTSGSTYYADSVKGRFTISRDKAKNTVYLQMNSLKPEDTAVYYCATVPHGKDTFGYWGQGTQVTVSS”, the “polyreactivity (PSR sort gate)” value is reported as “high polyreactivity”. With “QVQLVESGGGLVRAGGSLRLSCAASGRNKDNVMGWYRQAPGKERELVAAITRSAGRTYYADSVKGRFTISRDNAKNTVYLQMNSLIPEDTAVYYFATADAHYSAAGEDYWGQGTQVTVSS” the “polyreactivity (PSR sort gate)” value was “low polyreactivity”. In the case of “QVQLVESGGGLVRAGGSLRLSCAASGSTFDINAMGWYRQAPGKERELVASITFSGGSTYYADSVKGRFTISRDNAKNTVYLQMNSLKPEDTAVYYCNKDEPQFSSYLYSFYPGYDYWGQGTQVTVSS”, the “polyreactivity (PSR sort gate)” value is reported as “low polyreactivity”. In the case of “QVQLVESGGGLVRARGSLRLSWAASGNTFSSNAMGWYRQAPGKERELVAGITKSGGRTYYADSVKGSFTISRDNAKNTVYLQMNSLKPEDTAVYYCNRRACPYSIPYYYWGQGTQVTVSS”, the “polyreactivity (PSR sort gate)” value is reported as “high polyreactivity”. For “QVQLVESGGGRDQAGGSLRLSCAASGLTSYSNAMGWFRQAPGKERELVAAISRSGGSTYYADSVKGRFTISRDTAKNSVYLQMISLKAEDSAFYYCAASIWVYLLGGGYSDYDYWGQGTQETVSS”, the “polyreactivity (PSR sort gate)” value was “low polyreactivity”. With “QVQLVESGGGRVQAGGRIRLRCAASGLIFPGYDMGWYSPAPGKERELVAAISDSGANTYYADSVKGRFTISRDNAKNTVYLQMTSLKQEDTAVYYCAADSSWWYGTSFGRFDYWGQGTQVTVSS” the “polyreactivity (PSR sort gate)” value was “low polyreactivity”. For “QVQLVESGGGSVQAGGRLRLSCAASGLIFAGYARGWYRQSPGKERELVAASSTSGGRTYYADSVKGRFTISRDNAKNTVYLQINSLTPEDTAVYYCAAYPVHGKTQELAKEDYWGQGTQVTVSS”, the “polyreactivity (PSR sort gate)” value was “high polyreactivity”. For “QVQLVESGGGSVQAGGSLRLICAASGSTFSDYDMGWYRQAPGKERELVAAISIGGRTNYADSVKGRFTISRDNAKNTVYLQMNSLKPEDTAVYDCAADSQSIYAYWPGGGYGYWGQGTQVTLSS”, the “polyreactivity (PSR sort gate)” value was “low polyreactivity”. In the case of “QVQLVESGGGSVQAGGSLRLSCAASGIIFWYYTMGWYRQAPGKERELVAAISWSSGITYYADSVKGRFTISRDNAKNTVYLQMNSLKPEDTAVYYCAAAVSPHSEGFGEYNYWGQGTQVTVSS”, the “polyreactivity (PSR sort gate)” value is reported as “low polyreactivity”. For “QVQLVESGGGSVQAGGSLRLSCAASGSIYYYAMGWYIQAPGKERELVAAISRSGGSTYYADSVKGRFTISRDNAKNTVYLQMNCLKPEDTAVYYCAKGYRGYSYGYCGQGTQVTVSS”, the “polyreactivity (PSR sort gate)” value was “high polyreactivity”. With “QVQLVESGGGSVQAGGSLRLSCAASGYIFGVYDMGWYRQAPGKERELVAAISSGGSTNYADSVKGRFTISRDNAKNTVYLQMNSLKPEDTAVYYCNADYIFYYEYDYWGQGTQVTVSS” the “polyreactivity (PSR sort gate)” value was “low polyreactivity”. For “QVQLVESGGGVDQAGGSLRLSCAASGSTFHLYAMGCYRQAPGKERESVAAIRGRGGNTYADSVKGRFTISRDNAYNTVYLQMNSLKPEDTAVYYCAAPLLRDLRSPYSYNYWVQGTQVTVSS”, the “polyreactivity (PSR sort gate)” value was “low polyreactivity”. For “QVQLVESGGGVDQAGVSLRLSCAASGIICFGYAMGWYRQAPGNERELVARITRSGASTYYADSVKGRFTISRDNAKKTVYLQMYSLTPEDTPVSYCAADYRKRYDYWGQGTQVTVSS”, the “polyreactivity (PSR sort gate)” value was “low polyreactivity”. For “QVQLVESGGGVGQAGGSLRLSCAASGSNFKYYAMGWYRPAPGKERELVAVITSGGSTYYADSVKGRFTISRDNAKNTVYLQMNSLKPEDTAVYDCAAGVRAYNWGEYDYWGQGTQVTVSS”, the “polyreactivity (PSR sort gate)” value was “low polyreactivity”. With “QVQLVESGGGVVEAGGSLRLSCAASGSTLGFYARGWYRQAPGKEWEFVAAITRSGTSTYYADSVKGRFTISRDNAKNTVYLQMTSLKPEDTAVYYCPAESYYGVPYDSWGQGTQVTLSS” the “polyreactivity (PSR sort gate)” value was “high polyreactivity”. For “QVQLVESGGGVVQAGGGLRLSCAASGRTFIGNAMGWYRQAPGKEREFVAYITLSGGSTYYADSVKGRFTISRDNATINVYLQMNSLKPEDRAVYYCADKRFFGYLGYNRGGSRYDYWGQGTQVTVSS”, the “polyreactivity (PSR sort gate)” value was “high polyreactivity”. With “QVQLVESGGGVVQAGGMLRLSCAASGTTFDVYAMGGYRQAPGKEREFVAAITTSGGSTYYADSVKGRFSISRDNAKNTVYLEMYSLKPEVTAVYYCAAVWWKSFQGSSYRMNYWGQGTQVTVSS” the “polyreactivity (PSR sort gate)” value was “high polyreactivity”. For “QVQLVESGGGVVQAGGRLRLSCAASGRILPFYAMGWYRQETGKERELVPGITTGTSTTYADSVNGRFTISRDNAKNTVYFQMHSLKPEDTAVYYCNTLVVPYTDFNTSYNVDYWGQGTQVTVSS”, the “polyreactivity (PSR sort gate)” value was “low polyreactivity”. For “QVQLVESGGGVVQAGGSHRLSCAASGRTFRGNAMGWYRQAPGTERELVATITCSGGSTYYADSVKGRFTISRDNAKNTGYLQMNSLKPEDTAGYAGAVRGLHLVWVPFGYDYWRQGTQVTVSS”, the “polyreactivity (PSR sort gate)” value was “low polyreactivity”. For “QVQLVESGGGVVQAGGSHRLSCAASGSIFSSDAMGWYRQAPGKEREFVAAISSSGDSTYADSVKGRFTISRDNAKNTVYLQINSLKPEDTAVYYCAVGGAGSDDYWGPGTQVTVSS”, the “polyreactivity (PSR sort gate)” value was “low polyreactivity”. With “QVQLVESGGGVVQAGGSLGLSCAASGGIFAPYPMGWNRQAPGKERELAAAISSSDGSTYYADSVKGRFTISRDNAKNTVYLQMNSLKTEDTAVYYCAADYREDYGYWGQGTQVTVSS” the “polyreactivity (PSR sort gate)” value was “low polyreactivity”. In the case of “QVQLVESGGGVVQAGGSLGLSCAASGRIFDVNAMGWYRQAPGKERELVAAITYSDGSTYYADSVKGRFTISRDIAKNTVYLQMNSLKPEDTAVYYCAATQEPVTPQPYGYWGQGTQVTVSS”, the “polyreactivity (PSR sort gate)” value is reported as “low polyreactivity”. In the case of “QVQLVESGGGVVQAGGSLRLSCAASGFIFWLYAMGRYRQAPGKERELVATITYSDGSTYYADSVKGRFTISRDKANNTDYLQMNSLKPEDTAVYYCAAEVYYGYDYWGQGTQVTVSS”, the “polyreactivity (PSR sort gate)” value is reported as “low polyreactivity”. With “QVQLVESGGGVVQAGGSLRLSCAASGFIIARNAMGWYRQAPGKERELVAAISASGGRTYYSDSEKGRFTISRDNAKNTVYLQMNSLKPEDTAVYYCAARRDGRSGSYNYWGQGTQVTVSS” the “polyreactivity (PSR sort gate)” value was “high polyreactivity”. In the case of “QVQLVESGGGVVQAGGSLRLSCAASGFIISYNVMVWYRQAPGKERELVAAISSSGGSTYYADSVKGRFTISRDNAKNTVYLQMNSLKPEDTAVYYCATRVSRSFRAYDYWGQRTQVTVSS”, the “polyreactivity (PSR sort gate)” value is reported as “high polyreactivity”. With “QVQLVESGGGVVQAGGSLRLSCAASGFILRAYAMGWYRQAPGKERELVAAITSATSTNYADSVKGRFTISRDNAKNTVYLQMNSLKPEDTAVYYCAADGGGGEFSYDSWGQGTQVTVSS” the “polyreactivity (PSR sort gate)” value was “low polyreactivity”. In the case of “QVQLVESGGGVVQAGGSLRLSCAASGLIFAYAMGWYSPAPGKERELVAVISWSGGSTYYADSVKGRFTISRDNAKNTVYLQMNSLKPEDTAVYYCAADYFGNWQLAGGYWGQGTQVTVSS”, the “polyreactivity (PSR sort gate)” value is reported as “low polyreactivity”. For “QVQLVESGGGVVQAGGSLRLSCAASGRIFKSYAMGWYRPAPGKERELVASISYTGGSTYYAASVKGRFTISRDNAKNTVYLQMNRLKPEDTAVYDCAAKRVRSAGSYGYWGQGTQVTVSS”, the “polyreactivity (PSR sort gate)” value was “low polyreactivity”. With “QVQLVESGGGVVQAGGSLRLSCAASGRIFRYYTMGWYRQAPGKERELVASITGSGTSTYYADSVKGRFTISRDNAKNTVYLQMNSLKPEDNAVYYCNARGFRVASHAAWYQYDYWGQGTQVTVSS” the “polyreactivity (PSR sort gate)” value was “high polyreactivity”. For “QVQLVESGGGVVQAGGSLRLSCAASGRTFPYYTMGWYRQAPGKERELVAAITRSGDSTYYADSVKGRFTISRDNAKNTVYLQMYSLKPEDTAVYYCAADIWSSDYEEFYYWGLGTQVTVSS”, the “polyreactivity (PSR sort gate)” value was “low polyreactivity”. In the case of “QVQLVESGGGVVQAGGSLRLSCAASGRTYGYNAMGWYRPAPGTERELVAAITKSGVSTYYADSVKGRFTISRDNAKNTVYLQMNSLKPEDTAVYYCAVDSYYYSMDYWGQGTQVTVSS”, the “polyreactivity (PSR sort gate)” value is reported as “high polyreactivity”.

— the nanobody polyreactivity screen of Harvey et al. (2022)
